Assay results taken from paper doi:10.1101/2024.05.16.594476.
“And” between values parts separate entries of the source, which are not always exact repeats. Equal values may be shown once.

Assays:
[1] = molecular target: Mtb PhoP, phosphorylated with acetyl phosphate (AcP) (Mycobacterium tuberculosis) (UniProt P71814); assay: cryo-EM structure
[2] = molecular target: Mtb PhoP, phosphorylated with acetyl phosphate (AcP) (Mycobacterium tuberculosis) (UniProt P71814); assay: […]
[3] = molecular target: Mtb PhoP, phosphorylated with acetyl phosphate (AcP) (Mycobacterium tuberculosis) (UniProt P71814); assay: […]; remark: listed apart in the source

For “Mtb PhoP, phosphorylated with acetyl phosphate (AcP) (from UniProt P71814 1-247) (natural protein)”, the stoichiometry N [1] was 2, the stoichiometry N [2] was 2 and the stoichiometry N [3] was 6 and 4.
